The values below come from patent US9328334B2, “Luciferase derived from lucidina accensa” (OLYMPUS CORPORATION, priority 2011, dated 2016).

For this test, the system named is HeLa cell. The test is described as follows: Luminescence intensity of luciferase expressed in HeLa cell, comparison with P. pyralis luciferase (Example 3). The format is cell-based. Particulars: 2 mM D-luciferin, 25° C., 90 min after starting measurement. How it is done: Each of the wild type luciferase derived from L. accensa, the mutant luciferase derived from L. accensa (N50D and 1530R), and the luciferase derived from P. pyralis (SEQ ID NO: 33) was expressed in a HeLa cell, and the luminescence intensity was measured and compared to each other.
Further, since the pF9A vector contains the luciferase gene derived from Renilla reniformis as an internal control, it is possible to obtain the luminescence intensity from the luminescent gene inserted to the multicloning site as a ratio compared to the luminescence intensity emitted by the Renilla luciferase.
Three types of plasmids obtained in such a manner described above were each subjected to gene transfection to a HeLa cell, which has been inoculated in a 24-well plate, by a lipofection method, and 24 hours later, the cells were washed with PBS. To each well of a 24-well plate, 500 μL of 2 mM D-luciferin/CO2 Independent Medium (manufactured by Invitrogen) was added and the luminescence intensity was measured for 90 min by using a Luminescensor (manufactured by ATTO Corporation) under the condition including 25° C. and 1 sec per each well. The luminescence intensity which is obtained at the time point of 90 min after starting the measurement was taken as the luminescence intensity of the wild type luciferase, the mutant luciferase, and P. pyralis luciferase. […] Subsequently, 500 μL of 10 μM coelenterazine/CO2 Independent Medium was added to each well and the luminescence intensity was measured for 30 min by using a Luminescensor under the condition including 25° C. and 1 sec per each well. The luminescence intensity obtained at five minutes after the addition of coelenterazine was taken as luminescence intensity of the Renilla luciferase, which is an internal control. Each of the luminescence intensity from the wild type luciferase, the mutant luciferase, and P. pyralis luciferase was divided by the luminescence intensity of the Renilla luciferase, and the results are illustrated as a graph illustrating the luminescence intensity of each luciferase.

B1: mutant luciferase (N50D and I530R): L. accensa luciferase mutant with N50D and I530R, amino acid sequence SEQ ID NO: 2 (protein, listed as Lucidina accensa)
chain: MEEDKNILRGPAPFYPLEDGTAGEQLHRAMKRYALIPGTIAFTDAHAGVDITYSEYFEMACRLAESLKRYGLGLQHRIVVCSENSLQFFMPVVGALFIGVGVAPANDIYNERELLNSMTISQPTLVFCSRKGLQKILNVQKKLPVIQKIIILDTKEDYMGFQSMYSFVDSQLPVGFNEYDYVPDSFDRDQATALIMNSSGSTGLPKGVELNHTSVCVRFSHCRDPVYGNQIIPDTAILSVIPFHHGFGMFTTLGYLICGFRVVLMYRFEEELFLRSLQDYKIQSALLVPTLFSFFAKSTLIDKYDLSNLHEIASGGAPLAKEVGEAVAKRFNLRGIRQGYGLTETTSAVIITPEGDDKPGAVGKVVPFFSAKVVDLDTGKTLGVNQRGELCLKGPMIMKGYVNNPEATNALIDKDGWLHSGDISYWDEDGHFFIVDRLKSLIKYKGYQVPPAELESILLQHPFIFDAGVAGIPDDEAGELPAAVVVLEEGKTMTEKEIMDYVAGQVTTAKRLRGGVVFVDEVPKGLTGKRDARKIREILVKVKKTKSKL
For the molecule B1, the “luminescence intensity (divided by luminescence intensity of Renilla luciferase internal control)” value stood at 26.5.

B2: P. pyralis luciferase: existing luciferase derived from Photinus pyralis (SEQ ID NO: 33) (protein, listed as Photinus pyralis)
chain: MEDAKNIKKGPAPFYPLEDGTAGEQLHKAMKRYALVPGTIAFTDAHIEVDITYAEYFEMSVRLAEAMKRYGLNTNHRIVVCSENSLQFFMPVLGALFIGVAVAPANDIYNERELLNSMGISQPTVVFVSKKGLQKILNVQKKLPIIQKIIIMDSKTDYQGFQSMYTFVTSHLPPGFNEYDFVPESFDRDKTIALIMNSSGSTGLPKGVALPHRTACVRFSHARDPIFGNQIIPDTAILSVVPFHHGFGMFTTLGYLICGFRVVLMYRFEEELFLRSLQDYKIQSALLVPTLFSFFAKSTLIDKYDLSNLHEIASGGAPLSKEVGEAVAKRFHLPGIRQGYGLTETTSAILITPEGDDKPGAVGKVVPFFEAKVVDLDTGKTLGVNQRGELCVRGPMIMSGYVNNPEATNALIDKDGWLHSGDIAYWDEDEHFFIVDRLKSLIKYKGYQVAPAELESILLQHPNIFDAGVAGLPDDDAGELPAAVVVLEHGKTMTEKEIVDYVASQVTTAKKLRGGVVFVDEVPKGLTGKLDARKIREILIKAKKGGKIAV
For B2, the “luminescence intensity (divided by luminescence intensity of Renilla luciferase internal control)” value was found to be 6.6.
